Results reported in patent US20240374746A1 (TALLAC THERAPEUTICS, published 2024).

Columns and labels:
[1] = target: T1, Cyno SIRP-α V4 D1 domain-6His-Avi (cynomolgus, limits assumed); assay: SPR (Biacore 8K), conjugate captured on Protein A chip, His-tagged SIRP-α as analyte, single cycle kinetics; pH 6.0, 37 C
T1 construct: also called Analyte C
T1 chain: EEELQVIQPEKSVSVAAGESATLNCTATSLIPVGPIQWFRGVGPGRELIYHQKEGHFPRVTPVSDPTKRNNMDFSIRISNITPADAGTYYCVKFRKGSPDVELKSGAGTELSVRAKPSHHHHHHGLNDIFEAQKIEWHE
Experimental: (§1) Binding of the anti-SIRP-α antibody conjugate was measured using a Biacore 8K high throughput, high-sensitivity SPR system (Cytiva, Global Life Sciences Solutions USA LLC, Marlborough, MA) equipped with S-type sensor chips. The interaction of the conjugate with SIRP-α was analyzed by flowing His-tagged SIRP-α over Protein A captured anti-SIRP-α antibody conjugate on a Biacore Series S Protein A Sensor Chip. The anti-SIRP-α antibody portion of the conjugate comprised a heavy chain comprising the sequence of SEQ ID NO:66 and a light chain comprising the sequence of SEQ ID NO:73 conjugated to CpG oligo 7-7 (SEQ ID NO: 35).
(§2) All SIRP-α analytes were injected in single cycle kinetics mode at nominal starting concentrations of 100 nM with 3-fold serial dilutions with the exception of rat SIRP-α. Higher starting concentration of 300 nM was used for assessing binding to rat SIRP-α at pH 7.4. Association times were monitored for 120 s, and dissociation times were monitored 600 s at 30 μL/min flow rate. The surfaces were regenerated with 75 mM phosphoric acid at pH1.65 for two pulses of 15 s at 30 μL/min flow rate. Experiments were done at either 25° C. or 37° C. and at pH 6.0 or 7.4. Assay buffers were 1×PBS 0.01% Tween-20 at pH 6.0 with and 1×HBS-EP+ (10 mM HEPES, pH7.4, 150 mM NaCl, 3 mM EDTA, 0.05% (v/v) Surfactant P20) at pH 7.4. All data points were collected in duplicate or greater.
(§3) The data were processed and analyzed with Biacore 8K Evaluation Software Version 4.0.8.20368 (Cytiva, Global Life Sciences Solutions USA LLC, Marlborough, MA). Reference responses from flow cell 1 were subtracted from the active responses from flow cell 2 to obtain the subtracted data (2-1). The responses from the nearest buffer blank injection were then subtracted from the reference subtracted data (2-1) to yield double-referenced data. These double-reference data were fit to a simple 1:1 Langmuir binding model with mass transport to determine the apparent association (ka) and dissociation rate constants (kd). The apparent equilibrium dissociation constant or affinity constant was then calculated based on their ratio as (KD=kd/ka).

[2] = target: T2, Mouse SIRP-α normal D1 domain-6His (mouse); assay: as above
T2 construct: also called Analyte D
T2 chain: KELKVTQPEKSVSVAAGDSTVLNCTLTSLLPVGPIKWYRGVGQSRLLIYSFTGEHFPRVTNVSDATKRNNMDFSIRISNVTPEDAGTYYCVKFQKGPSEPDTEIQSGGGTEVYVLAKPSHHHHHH
Experimental: as §1, §2, §3

[3] = target: T3, Rat SIRP-α K32-N373-ECD-6His (rat, UniProt P97710 32-373); assay: as above
T3 construct: K32-N373 in the name counts on the natural rat protein; also called Analyte E; Rat SIRPα-ECD
T3 sequence: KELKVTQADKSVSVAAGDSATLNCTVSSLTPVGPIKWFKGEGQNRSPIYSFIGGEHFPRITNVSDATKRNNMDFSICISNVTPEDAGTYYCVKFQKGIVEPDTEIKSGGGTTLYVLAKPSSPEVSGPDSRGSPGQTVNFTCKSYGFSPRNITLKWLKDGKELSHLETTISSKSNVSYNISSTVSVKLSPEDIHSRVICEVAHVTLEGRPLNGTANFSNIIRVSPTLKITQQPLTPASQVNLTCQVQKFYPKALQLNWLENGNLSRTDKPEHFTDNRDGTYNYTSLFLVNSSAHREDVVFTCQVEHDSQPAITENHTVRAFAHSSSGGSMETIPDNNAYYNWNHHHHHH
Experimental: as §1, §2, §3

[4] = target: T4, human SIRP-α V1 D1 domain-6His (human, UniProt P78324 31-149); assay: as above
T4 construct: also called Analyte A
Experimental: as §1, §2, §3

[5] = target: T5, human SIRP-α V2 D1 domain-6His (human); assay: as above
T5 construct: also called Analyte B
Experimental: as §1, §2, §3

[6] = target: T1, Cyno SIRP-α V4 D1 domain-6His-Avi; assay: SPR (Biacore 8K), conjugate captured on Protein A chip, His-tagged SIRP-α as analyte, single cycle kinetics; pH 7.4, 25 C
Experimental: as §1, §2, §3

[7] = target: T2, Mouse SIRP-α normal D1 domain-6His; assay: as above
Experimental: as §1, §2, §3

[8] = target: T3, Rat SIRP-α K32-N373-ECD-6His; assay: as above
Experimental: as §1, §2, §3

[9] = target: T4, human SIRP-α V1 D1 domain-6His; assay: as above
Experimental: as §1, §2, §3

[10] = target: T5, human SIRP-α V2 D1 domain-6His; assay: as above
Experimental: as §1, §2, §3

[11] = target: T1, Cyno SIRP-α V4 D1 domain-6His-Avi; assay: SPR (Biacore 8K), conjugate captured on Protein A chip, His-tagged SIRP-α as analyte, single cycle kinetics; pH 6.0, 25 C
Experimental: as §1, §2, §3

[12] = target: T2, Mouse SIRP-α normal D1 domain-6His; assay: as above
Experimental: as §1, §2, §3

[13] = target: T3, Rat SIRP-α K32-N373-ECD-6His; assay: as above
Experimental: as §1, §2, §3

[14] = target: T4, human SIRP-α V1 D1 domain-6His; assay: as above
Experimental: as §1, §2, §3

[15] = target: T5, human SIRP-α V2 D1 domain-6His; assay: as above
Experimental: as §1, §2, §3

[16] = target: T1, Cyno SIRP-α V4 D1 domain-6His-Avi; assay: SPR (Biacore 8K), conjugate captured on Protein A chip, His-tagged SIRP-α as analyte, single cycle kinetics; pH 7.4, 37 C
Experimental: as §1, §2, §3

[17] = target: T2, Mouse SIRP-α normal D1 domain-6His; assay: as above
Experimental: as §1, §2, §3

[18] = target: T3, Rat SIRP-α K32-N373-ECD-6His; assay: as above
Experimental: as §1, §2, §3

[19] = target: T4, human SIRP-α V1 D1 domain-6His; assay: as above
Experimental: as §1, §2, §3

[20] = target: T5, human SIRP-α V2 D1 domain-6His; assay: as above
Experimental: as §1, §2, §3

T5 sequence (chain, as listed by the source limits assumed): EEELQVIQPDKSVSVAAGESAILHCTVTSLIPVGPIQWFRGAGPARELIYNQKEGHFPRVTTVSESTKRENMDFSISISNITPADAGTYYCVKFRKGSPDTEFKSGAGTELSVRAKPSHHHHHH
T4 sequence (P78324 other isoform, or with tags, fused parts or gaps limits assumed): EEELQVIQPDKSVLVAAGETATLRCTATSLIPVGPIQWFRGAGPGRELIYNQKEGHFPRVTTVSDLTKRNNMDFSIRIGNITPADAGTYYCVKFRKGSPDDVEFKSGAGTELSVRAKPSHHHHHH

Kd [1]: 100 pM | Kd [2]: 70 pM | Kd [3]: 8500 pM | Kd [4]: < 1 pM | Kd [5]: 10 pM | Kd [6]: 450 pM | Kd [7]: 690 pM | Kd [8]: 61400 pM | Kd [9]: 100 pM | Kd [10]: 230 pM | Kd [11]: 50 pM | Kd [12]: < 1 pM | Kd [13]: 3800 pM | Kd [14]: < 1 pM | Kd [15]: < 1 pM | Kd [16]: 710 pM | Kd [17]: 1630 pM | Kd [18]: 175000 pM | Kd [19]: 280 pM | Kd [20]: 510 pM
B1: anti-SIRP-α antibody-CpG oligonucleotide conjugate (human IgG4 heavy chain SEQ ID NO:66, light chain SEQ ID NO:73, conjugated to CpG oligo 7-7, SEQ ID NO:35) (antibody, V domains shown)
VH: EVQLVESGGGVVQPGGSLRLSCAASGFTFSSNAMSWVRQAPGKGLEWVAGISAGGSDTYYPASVKGRFTISRDNSKNTLYLQMNSLRAEDTAVYYCARETWNHLFDYWGQGTLVTVSS
VL: SYELTQPPSVSVSPGQTARITCSGGSYSSYYYAWYQQKPGQAPVTLIYSDDKRPSNIPERFSGSSSGTTVTLTISGVQAEDEADYYCGGYDQSSYTNPFGGGTKLTVLG
modifications: CpG oligo 7-7 (SEQ ID NO:35) with PEG linker attached by an amide bond to the glutamine of the C-terminal Q-tag RPQGFGPP; the general method pools DAR1 fractions (one CpG per antibody)
notes: The oligonucleotide payload is not a protein; also called anti-SIRP-α antibody conjugate; anti-hIgG4 SIRP-α conjugate
